According to patent US20260258115A1 (MAPP BIOPHARMACEUTICAL, published 2026):

B1: ADI-41602 (antibody, V domains shown)
VH: EVQLQESGPGLVKPSETLSLTCTVSGGSLSGYYWSWIRQPPGKGLEWIGYIYHSGSTNYNPSLESRVTISVDTSKNQFSLKVNAVTAADTAVYYCAKVERLLRFDPWGQGTLVTVSS
VL: QSVLIQPASVSGSPGQSITISCIGSSSDVGGYNYVSWYQHYPGKAPKLMIYDVSNRPSGVSNRFSGSKSGNTASLTISGLQAEDEADYYCSSYTSSTSYVFGTGTKVTVL
notes: also called Ab 876; Antibody Number 876
B2: ADI-41603 (antibody, V domains shown)
VH: EVQLVESGGGLVKPGRSLRLSCTTSGFTFGDYAMSWFRQAPGKGLEWVGFIRSKPYGGATAYAASVRGRFTISNDDSKSIAYLQMESLKIEDTAVYYCARDYDDFFFYDYWGQGTLVTVSS
VL: DIRMTQSPATLSVSPGERATLSCRASENIYSNLAWYQQKPGQAPRLLIYGASTRATGLPARFSGSGSGTEFTLTISSLQSEDFAVYYCQQYNNWPAFGGGTKVEIK
notes: also called Ab 877; Antibody Number 877
B3: ADI-41604 (antibody, V domains shown)
VH: QVTLKESGAEVKKPGASVKVSCKASGYTFTGYYMHWVRQAPGQGLEWMGRINPNSGGTNYAQKFQGRVTMTRDTSISTAYMELSRLRSDDTAVYYCAREASRFGGFDYWGQGTLVTVSS
VL: DIVLTQSPSSLSASVGDRVTITCQASQDISNYLNWYQQKPGKAPKLLIYDASNLETGVPSRFSGSGSGTDFTFTISSLQPEDIATYYCQQYDNLLGYTFGQGTKVEIK
B4: ADI-41605 (antibody, V domains shown)
VH: QVQLVESGPGLVKPSQTLSLTCSVSGGSISSDDHYWSWIRQHPGKGLEWIGYIYYSGYTNYNPSLKSRVTISVDTSKNQFSLRLSSVTAADTAVYYCARETDITIFGVVPVGYFDYWGQGTLVTVSS
VL: DIQVTQSPDSLAVSLGERATINCKSSQSILSSTNNKNFLAWYQQKPGQPPKLLLHWASTREFGVPDRFSGSGSGTEFTLTISSLQAEDVAVYYCQQYYTTPYTFGQGTKVEIK
notes: also called Ab 879; Antibody Number 879
B5: ADI-41606 (antibody, V domains shown)
VH: EVQLLESGPGLVKPSETLSLTCTVSGGSVSSGGYYYTWIRQPPGKGLEWIGYAFYSGDTNYNPSLKSRVTISVDTSKNQFSLKLTSVTAADTAVYYCASTYTFGASGFDFWGQGTLVTVSS
VL: DIVMTQSPSFMSASVGDRVTITCRASQGISNWLLWYQQKPGKAPKLLIYAASSLQSGVPSRFSGSRSGTDFTLTISSLQPEDFAIYYCQQANSFPLTFGQGTRLEIK
notes: also called Ab 880; Antibody Number 880
B6: ADI-41607 (antibody, V domains shown)
VH: EVQLVESGPGLVKPSQTLSLTCTVSGGSINIGGYYWSWIRQHPEKGLEWIGYIYYSGTTYYNPSLESRVTISIDTSKNQFSLNLSSVTAADTAVYYCASVDQIGATRFDYWGQGTLVTVSS
VL: QPVLTQPRSVSGSPGQSVTLSCTGTSSDVGTYNYVSWYQHHPGKAPKLIIYDVNKRPSGVPDRFSGSKSGNTASLTISGLQAEDEADYYCCSYAGSYTLNYVFGTGTKLTVL
B7: ADI-41608 (antibody, V domains shown)
VH: QVQLVQSGDEVKKPGESLKISCKGSEHTFTNYWIAWVRQMPGKGLECMGVIWPDDSDTKYSPSFQGQVTISADKSINTAYLHLSSLRASDTAMYYCATSKFRTGFDFWGQGTLVTVSS
VL: NFMLTQPHSVSESPGKTVIISCTRSSGNIASNYVQWYQQRPGSSPTTVVYEDNQRPSGVPDRFSGSIDSSSNSASLTISGLKTEDEADYYCQSYDSSNPWVFGGGTKLTVL
B8: ADI-41611 (antibody, V domains shown)
VH: EVQLVESGGGLVKPGGSLRLSCAASGFTFSDYSMNWVRQAPGKGLEWVSSTSSGSTYIYYADSVKGRFTISRDNGKNSLYLQMNSLRAEDTAVYYCARAFRLGYDALDIWGQGTMVTVSS
VL: DIRMTQSPSSLSASVGDRVTIICRASQSISNYLNWYQQKPGKAPKLLIYVASNLQSGVPSRFSGSGSGTDFTLTISSLQPEDFATYYCQQTYSPPPTFGGGTKLEIK
notes: also called Ab 885; Antibody Number 885
B9: ADI-41626 (antibody, V domains shown)
VH: EVQLQESGPGLVKPSGTLSLTCAVAGGFISSGNWWSWIRQPPGKGLEWIGEVYHSGRTSYNPSLKSRVTISVDNSKNQFSLKMSSVTAADTAVYYCARVESYSSSGYYIAYFDNWGQGNLVTVSS
VL: DIVLTQSPSSLSASVGDRVTITCRASQSISRYLSWYQQKPGKAPKLLIYAAFSLQTGVPSRFSGSGSGTDFTLTISSFQTEDSATYYCQQSYSAPVTFGGGTKVEIK
B10: ADI-41644 (antibody, V domains shown)
VH: QVQLQQWGPGLVKPSETLSLSCAVSGGSLRGHFWSWIRQPPGKGLEWIGEINHGGRTNFNPSLKSRLTISEDSSKNQFSLKLSSVTAADTAVYYCARRWGYDSSGYYFFDYWGQGTLVTVSS
VL: EIQMTQSPATLSVSPGERATLSCRASQTLGFNLAWYQQKPGQSPRLLIYGASTRATGIPARFSGSGAGTEFTLTISSLQSEDFAVYFCQQYSNYYTFGQGTKVEIK
notes: also called Ab 887; Antibody Number 887
B11: ADI-41660 (antibody, V domains shown)
VH: EVQLVQSGAEVKKPGSSVKVSCKASGGTFSRNAISWVRQAPGQGLEWMGGIIPIFGAANYPQKFQGRVTITADKSTSTAYMELSSLRSEDTALYYCARTMGEMTTTPVSIYYYGMDVWGQGTTVTVSS
VL: QSVLTQPPSVSAAPGQKVTISCSGSSSNIGINYVSWYQQLPGTAPKLLIYDNNKRPSGIPDRFSGSKSGTSATLGITGLQTGDEADYYCGTWDSSLSAGYVFGSGTKLTVL
B12: ADI-41662 (antibody, V domains shown)
VH: QVQLVQSGAEVKKAGESLKISCKGPRHSFTSYWIGWVRQMPGKGLEWMASIYPGDSDSRYSPSFEGQVTISADKSIDTAFLQWSSLKASDTAMYFCARYVGAVPGGNWYFDLWGRGTLVTVSS
VL: SYELIQLPSVSVSPGQTARITCSGDALPKKYAYWYQQKSGQAPVLVIYDDNKRPSGIPARFSGSSSGTMATLTISGAQVEDEGDYYCYSTDSTGDHRGVFGGGTKLTVL
B13: ADI-41664 (antibody, V domains shown)
VH: EVQLVQSGDEVKKPGASVKVSCKASGYPFSTYGISWVRQAPGQGLEWMGWIGVYTGGTNYAQKFQGRVTLTTDTSTSTAYMELRSLRSDDTAVYYCARGTGSYMTATYFDYWGQGTLVTVSS
VL: SYELTQPPSVSVAPGQTARITCGGNNIGSKAVHWYQQKPGQAPVLVVYDDYDRPSGIPERFSGSNSGNTATLTISRVEAGDEADYYCQVWDSSSDYVFGTGTKLTVL
notes: also called Ab 890; Antibody Number 890
B14: ADI-14404 (antibody, V domains shown)
VH: EVQLVESGGGLVQPGGSLRLSCAASGFTFSNFEMNWVRQAPGKGLEWVSYISSSGRIIYYADSVKGRFTISRDNARNSLYVQMNSLRVEDTAVYYCARAKAAAGHDLWGQGTLVTVSS
VL: EIVLTQSPSTLSASVGDRVTITCRASQSISPWLAWYQQKPGKAPKLLIYRASSLESGVPSRFSGSGSGTEFTLTISSLQPDDFATYYCQHYNSYLYTFGQGTKVEIK
notes: also called Ab 70
B15: ADI-14598 (antibody, V domains shown)
VH: QVQLVQSGAEVKKPGSSVKVSCKASGGTFSSYAIYWVRQAPGQGLECMGGIIPIFGSANYAQKFQGRVTITADESTSTAYMELSSLRSEDTAVYYCATDSLKTTYYYGSSGYFRDHVWGQGTTVTVSS
VL: ETTLTQSPSSLSASVGDRVTITCRASQGISNYLAWYQQKPGKVPKLLIFAASTLQSGVPSRFSGSGSGTDFTLTISSLQPEDVATYYCQNFNSVLSFTFGPGTKVDIK
B16: ADI-14605 (antibody, V domains shown)
VH: EVQLLESGPALVKPTQTLTLTCTFSGFSLTTSGMCVSWIRQPPGKALEWLARIDWDDDQYFSTSLRTRLSISKDTSKNQVVLTMTNMDPVDTATYYCARSALNIAARGFDIWGQGTTVTVSS
VL: QPGLTQPPSVSVSPGQTARITCSGDVLPKHFSYWYQQKPGQAPVLVIHRDSERPSGIPERFSGSSSGTTVTLTISGVQAEDEADYYCQFSDITNTVFGGGTKLTVL
B17: ADI-20997 (antibody, V domains shown)
VH: EVQLVESGGGVVQPGRSLRLSCAASGFPFNSYGMHWVRQAPGKGLEWLAVIYFDESTAYYADSVKGRFTISRDNSKSTLYLQMNSLRAADTAIYYCTTTVMIPYGGVFWGQGTLVTVSS
VL: EIVMTQSPGTLSLSPGDRATLSCRASQSVGSTHFAWYQQKPGQAPRLLIYAASIRATGIPDRFSGGGSGTDFTLTISRLAPEDFAVYYCQQYGSTPITFGQGTRLEIK
B18: ADI-21056 (antibody, V domains shown)
VH: EVQLLESGGGLVKPGGSLKLSCAASGFTLRSYYMHWVRQAPGRGLEWVSSISASSSYINYVDAVKGRFTVSRDNAKNSLFLQMNSLRAEDTAVYYCAREGGAMTNFGVVIDIWGQGTMVTVSS
VL: SYVLTQPPSVSGAPGQRVTISCTGSSSNIGAGYDVHWYQQLPGTAPKLLIYTNTNRPSGVPDRFSGSKSGTSASLAITGLQSDDEADYYCQSYDSSLSGPVVFGGGTKLTVL

Legend:
[1] = target: RSV postfusion F (postF), F ΔFP (Respiratory syncytial virus, UniProt P03420 26-513); test: BLI, IgG on anti-human IgG sensor, 100 nM antigen
[2] = target: RSV prefusion F (preF), DS-Cav1 (Respiratory syncytial virus, UniProt P03420 26-513); test: BLI, IgG on anti-human IgG sensor, 100 nM antigen
RSV F on RSV-A2 virus = RSV F on RSV-A2 virus (Respiratory syncytial virus, RSV-A2, UniProt P03420 26-574); test: cell-based or functional assay
[3] = target: RSV prefusion F (preF), subtype A (respiratory syncytial virus, subtype A, UniProt P03420 26-513); test: BLI, IgG
[4] = target: T1, RSV postfusion F (postF), subtype B (respiratory syncytial virus, subtype B); test: BLI, IgG
T1 construct: also called F ΔFP; Postfusion subtype B

[5] = target: T2, RSV postfusion F (postF), subtype A (respiratory syncytial virus, subtype A, UniProt P03420 26-513); test: BLI, IgG
T2 construct: also called F ΔFP; Postfusion subtype A

[6] = target: RSV prefusion F (preF), subtype B (respiratory syncytial virus, subtype B); test: BLI, IgG

Binder	Kd [1] [nM]	Kd [2] [nM]	Neutralization IC50 (RSV subtype A) (RSV F on RSV-A2 virus) [µg/mL]	binding result [3]	Kd [4] [nM]	Kd [5] [nM]	Kd [6] [nM]
B1	0.455	2.85	> 25	–	–	–	–
B2	0.49	3.49	> 25	–	–	–	–
B3	29.2	17.8	> 25	–	–	–	–
B4	0.55	3.18	> 25	–	–	–	–
B5	1.03	3.39	> 25	–	–	–	–
B6	0.709	4.24	> 25	–	–	–	–
B7	0.285	1.93	> 25	–	–	–	–
B8	0.611	3.09	> 25	–	–	–	–
B9	0.891	2.6	> 25	–	–	–	–
B10	1.1	3.03	> 25	–	–	–	–
B11	0.955	2.94	> 25	–	–	–	–
B12	1.21	5.24	> 25	–	–	–	–
B13	0.825	2.94	> 25	–	–	–	–
B14	–	–	–	no binding	0.498	0.627	–
B15	–	–	–	–	4.81	0.452	7.07
B16	–	–	–	–	0.399	–	2.72
B17	–	–	–	–	0.609	–	3.09
B18	–	–	–	–	63.4	–	0.223
